Data from IntAct's records for PubMed 26030876.

B1: Autophagy-related protein 101 (Homo sapiens), Q9BSB4 (parent)
chain: MNCRSEVLEVSVEGRQVEEAMLAVLHTVLLHRSTGKFHYKKEGTYSIGTVGTQDVDCDFIDFTYVRVSSEELDRALRKVVGEFKDALRNSGGDGLGQMSLEFYQKKKSRWPFSDECIPWEVWTVKVHVVALATEQERQICREKVGEKLCEKIINIVEVMNRHEYLPKMPTQSEVDNVFDTGLRDVQPYLYKISFQITDALGTSVTTTMRRLIKDTLAL
partner: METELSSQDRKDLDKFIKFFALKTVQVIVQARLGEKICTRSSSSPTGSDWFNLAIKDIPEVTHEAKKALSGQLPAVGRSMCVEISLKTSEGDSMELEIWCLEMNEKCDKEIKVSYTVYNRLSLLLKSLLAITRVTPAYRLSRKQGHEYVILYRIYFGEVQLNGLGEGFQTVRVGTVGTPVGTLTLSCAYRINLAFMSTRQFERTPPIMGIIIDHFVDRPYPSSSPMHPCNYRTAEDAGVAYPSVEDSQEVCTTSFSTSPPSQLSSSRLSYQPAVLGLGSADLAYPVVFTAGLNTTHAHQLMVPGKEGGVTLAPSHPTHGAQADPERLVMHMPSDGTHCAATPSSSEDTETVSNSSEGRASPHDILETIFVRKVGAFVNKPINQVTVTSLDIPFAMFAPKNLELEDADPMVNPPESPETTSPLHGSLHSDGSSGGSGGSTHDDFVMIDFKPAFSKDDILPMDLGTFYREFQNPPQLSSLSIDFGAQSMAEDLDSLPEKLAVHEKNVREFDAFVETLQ

Variants of: B1
Details: with atg13_mouse Atg13, Q91YI1

effect of a mutation on the interaction	Variant
disrupting interaction strength	MNCRSEVLEVSVEGRQVEEAMLAVLHTVLRRRSTGKFHYKKEGTYSIGTVGTQDVDCDFIDFTYVRVSSEELDRALRKVVGEFKDALRNSGGDGLGQMSLEFYQKKKSRWPFSDECIPWEVWTVKVHVVALATEQERQICREKVGEKLCEKIINIVEVMNRHEYLPKMPTQSEVDNVFDTGLRDVQPYLYKISFQITDALGTSVTTTMRRLIKDTLAL [L30R;H31R]
decreasing interaction strength	MNCRSEVLEVSVEGRQVEEAMLAVLHTVLLHRSTGKFHYKKEGTYSIGTVGTQDVDCDFIDFRYVRVSSEELDRALRKVVGEFKDALRNSGGDGLGQMSLEFYQKKKSRWPFSDECIPWEVWTVKVHVVALATEQERQICREKVGEKLCEKIINIVEVMNRHEYLPKMPTQSEVDNVFDTGLRDVQPYLYKISFQITDALGTSVTTTMRRLIKDTLAL [T63R]
